Laboratory results taken from doi:10.1101/2025.10.20.683367.

What was measured:
[1] = molecular target: Methanoculleus sp. schizorhodopsin (Methanoculleus sp. (metagenome-assembled genome)); assay: cryo-EM structure
[2] = molecular target: Methanoculleus taiwanensis schizorhodopsin (Methanoculleus taiwanensis); assay: cryo-EM structure

stoichiometry N [1]	stoichiometry N [2]	Substance
3	–	Methanoculleus sp. schizorhodopsin (natural protein)
–	3	Methanoculleus taiwanensis schizorhodopsin (natural protein)
